From PMC5797828 (Cancer Science, 2017)

Target: T1, Human γ-catenin, MYC/DDK-Tag (recombinant) (human, UniProt P14923 1-745)
T1 sequence (looked up): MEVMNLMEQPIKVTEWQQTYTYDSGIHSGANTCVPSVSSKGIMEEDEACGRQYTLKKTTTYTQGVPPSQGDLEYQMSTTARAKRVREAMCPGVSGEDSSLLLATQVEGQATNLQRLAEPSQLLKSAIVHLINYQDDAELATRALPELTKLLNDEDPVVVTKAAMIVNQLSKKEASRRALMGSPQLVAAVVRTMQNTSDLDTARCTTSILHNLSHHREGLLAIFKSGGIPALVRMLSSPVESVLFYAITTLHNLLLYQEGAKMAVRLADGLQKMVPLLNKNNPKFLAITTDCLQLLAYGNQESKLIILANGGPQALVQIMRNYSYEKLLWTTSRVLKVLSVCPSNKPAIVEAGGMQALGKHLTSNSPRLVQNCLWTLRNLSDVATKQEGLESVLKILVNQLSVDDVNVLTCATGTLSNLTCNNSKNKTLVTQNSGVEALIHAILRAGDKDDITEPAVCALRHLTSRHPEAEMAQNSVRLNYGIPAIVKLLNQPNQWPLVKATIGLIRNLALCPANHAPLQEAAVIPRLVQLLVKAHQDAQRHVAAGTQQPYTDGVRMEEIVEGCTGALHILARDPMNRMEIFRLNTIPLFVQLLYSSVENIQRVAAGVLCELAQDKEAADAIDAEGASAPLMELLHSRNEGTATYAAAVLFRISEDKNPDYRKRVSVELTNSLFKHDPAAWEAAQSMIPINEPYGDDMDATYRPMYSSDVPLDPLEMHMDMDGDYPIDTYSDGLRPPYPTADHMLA
Assay: SPR

binding result: binds
B1: Human PRDM14, GST-Tag at N-terminus (GST-PRDM14) (natural protein, UniProt Q9GZV8 1-571, looked up)
chain: MALPRPSEAVPQDKVCYPPESSPQNLAAYYTPFPSYGHYRNSLATVEEDFQPFRQLEAAASAAPAMPPFPFRMAPPLLSPGLGLQREPLYDLPWYSKLPPWYPIPHVPREVPPFLSSSHEYAGASSEDLGHQIIGGDNESGPCCGPDTLIPPPPADASLLPEGLRTSQLLPCSPSKQSEDGPKPSNQEGKSPARFQFTEEDLHFVLYGVTPSLEHPASLHHAISGLLVPPDSSGSDSLPQTLDKDSLQLPEGLCLMQTVFGEVPHFGVFCSSFIAKGVRFGPFQGKVVNASEVKTYGDNSVMWEIFEDGHLSHFIDGKGGTGNWMSYVNCARFPKEQNLVAVQCQGHIFYESCKEIHQNQELLVWYGDCYEKFLDIPVSLQVTEPGKQPSGPSEESAEGYRCERCGKVFTYKYYRDKHLKYTPCVDKGDRKFPCSLCKRSFEKRDRLRIHILHVHEKHRPHKCSTCGKCFSQSSSLNKHMRVHSGDRPYQCVYCTKRFTASSILRTHIRQHSGEKPFKCKYCGKSFASHAAHDSHVRRSHKEDDGCSCSICGKIFSDQETFYSHMKFHEDY
